Data on four molecules can be found in paper PMC13544220, “Glycemic and bodyweight effects of GIPR coding variation reflect differences in surface expression and intrinsic functional impairment” (Science Advances, 2026).

Substitutions are numbered along the chain they refer to. Names and notes keep the numbering of the source.

To fix the notation:
B1: E354Q (protein)
chain: RAETGSKGQTAGELYQRWERYRRECQETLAAAEPPSGLACNGSFDMYVCWDYAAPNATARASCPWYLPWHHHVAAGFVLRQCGSDGQWGLWRDHTQCENPEKNEAFLDQRLILERLQVMYTVGYSLSLATLLLALLILSLFRRLHCTRNYIHINLFTSFMLRAAAILSRDRLLPRPGPYLGDQALALWNQALAACRTAQIVTQYCVGANYTWLLVEGVYLHSLLVLVGGSEEGHFRYYLLLGWGAPALFVIPWVIVRYLYENTQCWERNEVKAIWWIIRTPILMTILINFLIFIRILGILLSKLRTRQMRCRDYRLRLARSTLTLVPLLGVHQVVFAPVTEEQARGALRFAKLGFEIFLSSFQGFLVSVLYCFINKEVQSEIRRGWHHCRLRRSLGEEQRQLPERAFRALPSGSGPGEVPTSRGLSSGTLPGPGNEASRELESYC
B2: R190Q (protein)
chain: B1 chain with R169Q, Q333E
modifications: left off: SNAP-tag, end not stated, kept
B3: R101H (protein)
chain: B1 chain with R80H, Q333E
B4: E288G (protein)
chain: B1 chain with E267G, Q333E

The subject of the first series is wild-type and variant SNAP-GIPR in Gipr-/- mouse islets. The series is described as follows: Insulin secretion from Gipr-/- mouse islets transduced with GIPR adenoviruses. It counts as cell-based. To be noted: Fig 6D, Gipr-/- mouse islets, replicate 1. The protocol:
Isolated islets used for insulin secretion assays were treated in 1.5-ml microcentrifuge tubes. Eight-ten islets were used per well with two-three technical replicates per condition. […] At the end of the treatment, supernatants containing the secreted insulin or glucagon were collected, centrifuged at 1000g for 5 min, and transferred to fresh tubes. […] The lysates were sonicated 3× for 10 s in a water bath and centrifuged at 10,000g for 10 min, and the supernatants were collected. The samples were stored at −20°C until the insulin or glucagon concentrations were determined using an Insulin Ultra-Sensitive HTRF Assay kit (62IN2PEG, Revvity) or an HTRF Glucagon Detection Kit (62CGLPEG, Revvity) respectively, according to the manufacturer’s instructions. GraphPad Prism 9.0 was used for the generation of the standard curve and sample concentration extrapolation. The total insulin or glucagon content was calculated by adding the secreted insulin to the insulin content of the lysates, and secretion was reported as the percentage release of total. The percent secretion of islets treated with agonist was normalized to that of islets treated with vehicle and reported as a fold change.
B1: the “Insulin secretion, ratio G11 + GIP / G11” value is recorded as 1.276.
The same measure, in the same setting: the same measure for B2: 0.6189; for B3: 2.4659.
Consider B4, for which the “Insulin secretion, ratio G11 + GIP / G11” value amounted to 2.545.

The same series, now with this note: Fig 6D, Gipr-/- mouse islets, replicate 2.
With B1, the “Insulin secretion, ratio G11 + GIP / G11” value stood at 0.2979.
As for B2, the “Insulin secretion, ratio G11 + GIP / G11” value is 1.413.
Consider B3, for which the “Insulin secretion, ratio G11 + GIP / G11” value is 2.05.
On to B4, for which the “Insulin secretion, ratio G11 + GIP / G11” value was found to be 0.8478.

Staying with this series, now noted: Fig 6D, Gipr-/- mouse islets, replicate 3.
B1: the “Insulin secretion, ratio G11 + GIP / G11” value amounted to 1.231.
On to B2, for which the “Insulin secretion, ratio G11 + GIP / G11” value came to 1.022.
On to B3, for which the “Insulin secretion, ratio G11 + GIP / G11” value stood at 1.407.
Still for that read-out and setting: the same measure for B4: 2.186.

Staying with this series, now noted: Fig 6D, Gipr-/- mouse islets, replicate 4.
On to B1, for which the “Insulin secretion, ratio G11 + GIP / G11” value turned out to be 1.587.
For the molecule B2, the “Insulin secretion, ratio G11 + GIP / G11” value is recorded as 0.3777.
Turning to B3, the “Insulin secretion, ratio G11 + GIP / G11” value turned out to be 1.963.
For the molecule B4, the “Insulin secretion, ratio G11 + GIP / G11” value is 1.083.

In the next series the test system is wild-type and variant SNAP-GIPR. Nature of the series: Single-concentration GIP cAMP response by HTRF in AD293 cells.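 Note: ratio to experiment-wide average response.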 It counts as cell-based, human. To be noted: Fig S3F; AD293, 100 pM, HTRF; mean. As to the method: All variants were tested in parallel on each occasion to control for transfection efficiency differences between experiments.
(Time-resolved FRET reads energy transfer from a long-lived donor to a nearby acceptor.)
For the molecule B1, the “AD293 100 pM HTRF” value worked out at 4.703.
On the same count and under the same terms, the same measure for B2: 0.272.
In the case of B3, the “AD293 100 pM HTRF” value is reported as -0.001017.
Same read-out and setting: the same measure for B4: 0.007216.

Still in this series, the particulars now being: Fig S3F; AD293, 100 nM, HTRF; mean.
As for B1, the “AD293 100 nM HTRF” value was determined as 1.4229.
For the molecule B2, the “AD293 100 nM HTRF” value is 0.2205.
On the same count and under the same terms, the same measure for B3: 0.2474.
For B4, the “AD293 100 nM HTRF” value came out at 0.3648.

The next series shares this test system. Nature of the series: Constitutive and agonist-mediated internalization, reversible SNAP-tag labelling, AD293 cells. It counts as cell-based, human. Also noted: key to Internalisation, Vehicle / Internalisation, +GIP / Internalisation, GIP-only: % internalization: residual fluorescence after Mesna vs pre-Mesna; Surface expression: unit not given here. The conditions noted are these: Fig 4E, GIP 100 nM, Mean. Put shortly:
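Percentage internalization is read as the fraction of specific SNAP fluorescence that survives Mesna stripping, compared with the image taken before Mesna. Wells are imaged in TNE buffer at pH 8.6 and again after 10 min.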
For B1, the “+GIP internalisation (100 nM)” value is 0.4635 and the “GIP-specific internalisation (100 nM)” value is reported as 0.1217.
For B2, the “+GIP internalisation (100 nM)” value was 0.1813 and the “GIP-specific internalisation (100 nM)” value was -0.007972.
In the case of B3, the “+GIP internalisation (100 nM)” value is given as 0.1328 and the “GIP-specific internalisation (100 nM)” value was determined as 0.01912.
As for B4, the “+GIP internalisation (100 nM)” value worked out at 0.06598 and the “GIP-specific internalisation (100 nM)” value worked out at 0.002144.

The same series, now with this note: Fig 4E, Mean.
As to B1, the “Constitutive internalisation (100 nM)” value came to 0.3419 and the Surface expression was 0.6766.
In the case of B2, the “Constitutive internalisation (100 nM)” value stood at 0.1892 and the Surface expression stood at 0.3493.
As for B3, the “Constitutive internalisation (100 nM)” value is on record as 0.1137 and the Surface expression is listed as 0.2712.
B4: the “Constitutive internalisation (100 nM)” value stood at 0.06383 and the Surface expression is recorded as 0.1099.

The same series, now with this note: Fig S4C; AD293; Mean.
Turning to B1, the “Internalisation, +GIP” value is 68.6221; the “Internalisation, GIP-only” value was 17.9918; the “Internalisation, Vehicle” value is reported as 50.6302.
Take B2: the “Internalisation, +GIP” value is reported as 51.2548; the “Internalisation, GIP-only” value was -3.738; the “Internalisation, Vehicle” value came out at 54.9926.
B3: the “Internalisation, +GIP” value worked out at 49.9522; the “Internalisation, GIP-only” value was 4.89; the “Internalisation, Vehicle” value is 45.062.
On to B4, for which the “Internalisation, +GIP” value came to 59.0204; the “Internalisation, GIP-only” value is on record as 2.581; the “Internalisation, Vehicle” value is on record as 56.4393.

Another series shares this test system. Nature of the series: cADDis cAMP imaging in AD293 cells, ensemble, expression-matched and per decile.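 Note: Ensemble cells as % of IBMX/FSK response.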 The conditions noted are these: Fig S3F; AD293, 100 pM, cADDis; mean. It counts as cell-based, human. Put shortly: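 AD293 cells were transfected with SNAP-GIPR constructs and cotransduced with the cADDis Green Up cAMP sensor, then labeled after 24 h with 500 nM SNAP-Surface Alexa Fluor 647. Per-cell cADDis intensity was tracked at 37°C in KRBH with 6 mM glucose and 0.1% BSA.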
For the molecule B1, the “AD293 100 pM cADDis” value is listed as 41.2353.
In the case of B2, the “AD293 100 pM cADDis” value is -0.9408.
On to B3, for which the “AD293 100 pM cADDis” value is given as 6.465.
With B4, the “AD293 100 pM cADDis” value came out at 0.802.

Still in this series, the particulars now being: Fig S3F; AD293, 100 nM, cADDis; mean.
For the molecule B1, the “AD293 100 nM cADDis” value is on record as 37.94.
On to B2, for which the “AD293 100 nM cADDis” value is reported as 9.541.
Same read-out and setting: under B3 stands 17.19; under B4, 24.23.
